Measured values taken from patent US20150258192A1, “COMPOSITIONS AND METHODS FOR PREVENTING OR TREATING CHRONIC LUNG ALLOGRAFT DYSFUNCTION (CLAD) AND IDIOPATHIC PULMONARY FIBROSIS (IPF)” (priority 2014, published 2015).
No end group written: not given here.

Assays:
Assay in all cases: Kinase Profiling Assay
Assay type in all cases: biochemical
Settings in all cases: peptide 100 μM
PKG1α(h) = target: T1, PKG1α(h) (Homo sapiens, UniProt Q13976)
T1 sequence (Q13976 1-671): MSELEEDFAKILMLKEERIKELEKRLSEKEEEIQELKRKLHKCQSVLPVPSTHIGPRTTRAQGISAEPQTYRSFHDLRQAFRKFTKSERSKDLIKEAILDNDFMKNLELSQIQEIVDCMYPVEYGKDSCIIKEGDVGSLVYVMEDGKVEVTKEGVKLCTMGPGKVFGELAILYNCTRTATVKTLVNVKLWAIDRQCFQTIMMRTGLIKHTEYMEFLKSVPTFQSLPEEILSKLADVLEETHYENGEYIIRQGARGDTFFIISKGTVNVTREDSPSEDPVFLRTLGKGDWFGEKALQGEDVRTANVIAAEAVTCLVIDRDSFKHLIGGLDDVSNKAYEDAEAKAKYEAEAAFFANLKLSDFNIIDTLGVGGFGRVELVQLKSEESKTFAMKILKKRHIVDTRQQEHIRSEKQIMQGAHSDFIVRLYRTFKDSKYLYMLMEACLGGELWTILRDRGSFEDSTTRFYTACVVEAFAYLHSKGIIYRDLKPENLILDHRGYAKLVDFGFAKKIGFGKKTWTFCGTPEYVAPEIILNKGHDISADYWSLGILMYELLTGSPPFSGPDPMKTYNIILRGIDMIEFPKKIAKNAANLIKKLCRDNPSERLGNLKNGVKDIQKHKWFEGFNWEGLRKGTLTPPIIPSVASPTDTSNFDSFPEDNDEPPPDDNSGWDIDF
Outline: (§1)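 In this 266-kinase specificity panel, every measurement was duplicated. Transfer of labeled phosphate from ATP to a cationic substrate was quantified after the substrate adhered to an anionic filter membrane and was scintillation-counted, then related to a full-activity control.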

SGK(h) = target: T2, SGK(h) (Homo sapiens, UniProt O00141)
T2 construct: purchased Millipore
T2 sequence (O00141 1-431): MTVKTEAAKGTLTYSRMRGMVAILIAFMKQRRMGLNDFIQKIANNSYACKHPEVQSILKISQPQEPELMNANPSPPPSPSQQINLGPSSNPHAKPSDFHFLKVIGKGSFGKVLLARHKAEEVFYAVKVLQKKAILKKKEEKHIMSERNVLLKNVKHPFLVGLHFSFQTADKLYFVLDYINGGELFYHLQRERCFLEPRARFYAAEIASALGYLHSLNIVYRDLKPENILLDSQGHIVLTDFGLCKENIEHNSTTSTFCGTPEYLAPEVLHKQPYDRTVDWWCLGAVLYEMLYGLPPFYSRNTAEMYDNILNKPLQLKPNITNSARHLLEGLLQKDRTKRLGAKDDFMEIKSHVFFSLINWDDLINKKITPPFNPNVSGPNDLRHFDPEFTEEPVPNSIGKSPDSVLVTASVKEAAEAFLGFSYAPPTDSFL
Outline: as §1

NEK11(h) = target: T3, NEK11(h) (Homo sapiens, UniProt Q8NG66)
T3 construct: purchased Millipore
T3 sequence (Q8NG66 1-645): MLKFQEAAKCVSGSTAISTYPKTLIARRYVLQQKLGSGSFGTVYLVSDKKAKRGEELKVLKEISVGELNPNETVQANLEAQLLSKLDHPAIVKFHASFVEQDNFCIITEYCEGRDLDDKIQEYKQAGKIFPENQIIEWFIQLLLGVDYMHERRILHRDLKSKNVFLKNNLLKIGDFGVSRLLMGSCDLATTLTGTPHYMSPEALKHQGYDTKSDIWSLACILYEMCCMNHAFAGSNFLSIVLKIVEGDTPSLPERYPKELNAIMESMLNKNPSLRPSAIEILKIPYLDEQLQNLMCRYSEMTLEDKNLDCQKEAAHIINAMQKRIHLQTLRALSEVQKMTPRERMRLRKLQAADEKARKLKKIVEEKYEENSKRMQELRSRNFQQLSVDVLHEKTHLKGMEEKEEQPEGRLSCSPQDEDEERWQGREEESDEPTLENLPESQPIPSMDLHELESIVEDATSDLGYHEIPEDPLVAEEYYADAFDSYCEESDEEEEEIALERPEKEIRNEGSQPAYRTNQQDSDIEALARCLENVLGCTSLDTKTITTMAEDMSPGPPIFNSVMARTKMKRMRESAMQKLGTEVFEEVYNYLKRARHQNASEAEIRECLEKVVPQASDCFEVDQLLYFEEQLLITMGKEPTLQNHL
Outline: as §1

SIK(h) = target: T4, SIK(h) (Homo sapiens, UniProt P57059)
T4 construct: purchased Millipore
Outline: as §1

EphA3(h) = target: T5, EphA3(h) (Homo sapiens, UniProt P29320)
T5 sequence (P29320 21-983): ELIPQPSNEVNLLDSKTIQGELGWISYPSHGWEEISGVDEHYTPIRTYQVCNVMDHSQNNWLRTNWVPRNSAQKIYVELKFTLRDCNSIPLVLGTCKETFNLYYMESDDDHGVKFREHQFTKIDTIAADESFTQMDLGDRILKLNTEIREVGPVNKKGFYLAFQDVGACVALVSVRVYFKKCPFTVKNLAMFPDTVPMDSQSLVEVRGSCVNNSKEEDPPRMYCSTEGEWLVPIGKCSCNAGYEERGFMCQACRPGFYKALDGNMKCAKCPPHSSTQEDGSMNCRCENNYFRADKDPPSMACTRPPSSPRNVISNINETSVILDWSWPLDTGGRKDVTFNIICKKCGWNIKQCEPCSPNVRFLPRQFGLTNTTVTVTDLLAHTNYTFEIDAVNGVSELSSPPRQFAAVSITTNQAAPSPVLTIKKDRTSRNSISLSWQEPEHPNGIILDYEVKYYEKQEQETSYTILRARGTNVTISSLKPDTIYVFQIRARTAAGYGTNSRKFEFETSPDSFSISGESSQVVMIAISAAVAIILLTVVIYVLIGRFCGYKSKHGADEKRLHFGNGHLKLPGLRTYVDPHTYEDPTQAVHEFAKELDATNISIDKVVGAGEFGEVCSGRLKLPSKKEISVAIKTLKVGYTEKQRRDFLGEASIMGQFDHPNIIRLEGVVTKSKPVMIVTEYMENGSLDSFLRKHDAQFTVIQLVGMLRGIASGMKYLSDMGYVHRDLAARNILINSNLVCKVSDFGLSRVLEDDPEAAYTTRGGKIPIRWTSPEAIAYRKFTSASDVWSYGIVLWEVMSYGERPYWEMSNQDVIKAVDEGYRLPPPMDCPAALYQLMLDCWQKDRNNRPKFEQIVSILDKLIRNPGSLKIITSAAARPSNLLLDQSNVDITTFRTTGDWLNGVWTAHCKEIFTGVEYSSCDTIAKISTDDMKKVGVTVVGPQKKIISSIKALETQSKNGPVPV
Outline: as §1

T4 sequence (P57059 whole entry): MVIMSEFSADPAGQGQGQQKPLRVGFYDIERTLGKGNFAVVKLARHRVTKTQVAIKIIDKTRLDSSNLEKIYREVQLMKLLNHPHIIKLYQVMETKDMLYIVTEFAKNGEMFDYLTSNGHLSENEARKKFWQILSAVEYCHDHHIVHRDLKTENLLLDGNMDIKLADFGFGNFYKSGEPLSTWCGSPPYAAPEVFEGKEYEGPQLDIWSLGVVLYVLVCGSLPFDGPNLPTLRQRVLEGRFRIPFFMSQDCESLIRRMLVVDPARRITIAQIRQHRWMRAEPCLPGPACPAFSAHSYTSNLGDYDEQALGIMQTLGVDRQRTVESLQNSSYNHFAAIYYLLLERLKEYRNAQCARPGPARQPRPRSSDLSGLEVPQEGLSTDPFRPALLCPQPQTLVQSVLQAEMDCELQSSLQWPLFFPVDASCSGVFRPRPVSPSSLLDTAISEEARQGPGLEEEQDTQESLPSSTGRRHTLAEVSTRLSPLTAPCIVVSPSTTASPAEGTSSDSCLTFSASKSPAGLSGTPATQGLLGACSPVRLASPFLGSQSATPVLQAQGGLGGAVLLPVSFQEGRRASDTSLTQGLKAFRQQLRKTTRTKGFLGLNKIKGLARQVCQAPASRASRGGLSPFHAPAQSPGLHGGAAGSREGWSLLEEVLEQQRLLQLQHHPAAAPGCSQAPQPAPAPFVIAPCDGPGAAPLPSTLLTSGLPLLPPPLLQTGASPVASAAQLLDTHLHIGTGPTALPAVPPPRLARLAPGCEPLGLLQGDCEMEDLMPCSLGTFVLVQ

Sequence: FAKLAARLYRKALARQLGVAA [MMI-0300]
- % activity (PKG1α(h)): 64%
- % activity (SGK(h)): 48%
- % activity (NEK11(h)): 53%
- % activity (SIK(h)): 66%
- % activity (EphA3(h)): 6%

Sequence: HRRIKAWLKKIKALARQLGVAA (Mammal) [MMI-0500]
- % activity (PKG1α(h)): 25%
- % activity (SGK(h)): 2%
- % activity (NEK11(h)): 2%
- % activity (SIK(h)): 40%
- % activity (EphA3(h)): 33%

Sequence: KAFAKLAARLYRKALARQLGVAA [MMI-0400]
- % activity (PKG1α(h)): 58%
- % activity (SGK(h)): 54%
- % activity (NEK11(h)): 33%
- % activity (SIK(h)): 68%
- % activity (EphA3(h)): 12%

Sequence: YARAAARQARAKALARQLGVAA [MMI-0100]
- % activity (PKG1α(h)): 82%
- % activity (SGK(h)): 128%

Sequence: YARAAARQARAKALNRQLGVA (Mammal) [MMI-0200]
- % activity (PKG1α(h)): 70%
- % activity (NEK11(h)): 95%
